Data taken from article PMC4507011.

Columns and labels:
[1] = molecular target: dehydrogenase domain (DH) of MtCDH variant M309A (Myriococcum thermophilum)
[2] = molecular target: dehydrogenase domain (DH) of MtCDH variant M309R (Myriococcum thermophilum)
[3] = molecular target: dehydrogenase domain (DH) of MtCDH variant N292S (Myriococcum thermophilum)
[4] = molecular target: dehydrogenase domain (DH) of MtCDH variant N700S (Myriococcum thermophilum)
[5] = molecular target: dehydrogenase domain (DH) of MtCDH variant R698S (Myriococcum thermophilum)
[6] = molecular target: dehydrogenase domain (DH) of MtCDH variant S298Q (Myriococcum thermophilum)
[7] = molecular target: dehydrogenase domain (DH) of MtCDH variant W295A (Myriococcum thermophilum)
[8] = molecular target: dehydrogenase domain (DH) of MtCDH variant Y549F (Myriococcum thermophilum)
[9] = molecular target: dehydrogenase domain (DH) of MtCDH variant Y619Q (Myriococcum thermophilum)
[10] = molecular target: dehydrogenase domain (DH) of Myriococcum thermophilum cellobiose dehydrogenase, wild type (Myriococcum thermophilum)
[11] = molecular target: T1, Neurospora crassa lytic polysaccharide monooxygenase NcLPMO9F (Neurospora crassa) (UniProt Q1K4Q1)
T1 sequence (chain, non-glycosylated; N-terminal histidine not methylated): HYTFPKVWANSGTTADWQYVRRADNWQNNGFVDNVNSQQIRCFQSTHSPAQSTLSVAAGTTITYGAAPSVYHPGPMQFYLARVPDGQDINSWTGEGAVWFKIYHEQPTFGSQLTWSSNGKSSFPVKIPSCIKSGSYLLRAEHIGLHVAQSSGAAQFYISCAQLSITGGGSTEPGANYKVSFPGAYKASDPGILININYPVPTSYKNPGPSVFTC

[12] = molecular target: T1, Neurospora crassa lytic polysaccharide monooxygenase NcLPMO9F (Neurospora crassa); remark: listed apart in the source

“cytochrome domain (CYT) of Myriococcum thermophilum cellobiose dehydrogenase (domain or fragment)” showed a haem b reduction rate kobs (interdomain electron transfer) of 5 μM full-length MtCDH M309A with 25 mM cellobiose, stopped flow at 563 nm, 30 °C, pH 5.0 [1] of 0.056 s⁻¹, a haem b reduction rate kobs (interdomain electron transfer) of 5 μM full-length MtCDH M309R with 25 mM cellobiose, stopped flow at 563 nm, 30 °C, pH 5.0 [2] of 0.088 s⁻¹ and a haem b reduction rate kobs (interdomain electron transfer) of 5 μM full-length MtCDH N292S with 25 mM cellobiose, stopped flow at 563 nm, 30 °C, pH 5.0 [3] of 0.95 s⁻¹. For the same molecule, the haem b reduction rate kobs (interdomain electron transfer) of 5 μM full-length MtCDH N700S with 25 mM cellobiose, stopped flow at 563 nm, 30 °C, pH 5.0 [4] was 1.37 s⁻¹, the haem b reduction rate kobs (interdomain electron transfer) of 5 μM full-length MtCDH R698S with 25 mM cellobiose, stopped flow at 563 nm, 30 °C, pH 5.0 [5] was 0.011 s⁻¹ and the haem b reduction rate kobs (interdomain electron transfer) of 5 μM full-length MtCDH S298Q with 25 mM cellobiose, stopped flow at 563 nm, 30 °C, pH 5.0 [6] was 0.09 s⁻¹. It also gave a haem b reduction rate kobs (interdomain electron transfer) of 5 μM full-length MtCDH W295A with 25 mM cellobiose, stopped flow at 563 nm, 30 °C, pH 5.0 [7] of 0.86 s⁻¹, a haem b reduction rate kobs (interdomain electron transfer) of 5 μM full-length MtCDH Y549F with 25 mM cellobiose, stopped flow at 563 nm, 30 °C, pH 5.0 [8] of 0.76 s⁻¹ and a haem b reduction rate kobs (interdomain electron transfer) of 5 μM full-length MtCDH Y619Q with 25 mM cellobiose, stopped flow at 563 nm, 30 °C, pH 5.0 [9] of 0.38 s⁻¹. It also gave a haem b reduction rate kobs (flavin-to-haem interdomain electron transfer) of 5 μM full-length MtCDH wild type with 25 mM cellobiose, stopped flow at 563 nm, 30 °C, 50 mM sodium citrate pH 5.0 [10] of 0.76 s⁻¹.

B1: cytochrome domain of Neurospora crassa cellobiose dehydrogenase IIA (separate fragment) (domain or fragment)
chain: QTAPKTFTHPDTGIVFNTWSASDSQTKGGFTVGMALPSNALTTDATEFIGYLECSSAKNGANSGWCGVSLRGAMTNNLLITAWPSDGEVYTNLMFATGYAMPKNYAGDAKITQIASSVNATHFTLVFRCQNCLSWDQDGVTGGISTSNKGAQLGWVQAFPSPGNPTCPTQITLSQHDNGMGQWGAAFDSNIANPSYTAWAAKATKTVTGTCSGPVTTSIAATPVPTGVSFDYIVVGGGAGGIPVADKLSESGKSVLLIEKGFASTGEHGGTLKPEWLNNTSLTRFDVPGLCNQIWKDSDGIACSDTDQMAGCVLGGGTAINAGLWYKPYTKDWDYLFPSGWKGSDIAGATSRALSRIPGTTTPSQDGKRYLQQGFEVLANGLKASGWKEVDSLKDSEQKNRTFSHTSYMYINGERGGPLATYLVSAKKRSNFKLWLNTAVKRVIREGGHITGVEVEAFRNGGYSGIIPVTNTTGRVVLSAGTFGSAKILLRSGIGPKDQLEVVKASADGPTMVSNSSWIDLPVGHNLVDHTNTDTVIQHNNVTFYDFYKAWDNPNTTDMNLYLNGRSGIFAQAAPNIGPLFWEEITGADGIVRQLHWTARVEGSFETPDGYAMTMSQYLGRGATSRGRMTLSPTLNTVVSDLPYLKDPNDKAAVVQGIVNLQKALANVKGLTWAYPSANQTAADFVDKQPVTYQSRRSNHWMGTNKMGTDDGRSGGTAVVDTNTRVYGTDNLYVVDASIFPGVPTTNPTAYIVVAAEHAAAKILAQPANEAVPKWGWCGGPTYTGSQTCQAPYKCEKQNDWYWQCV
Molecule B1 has a haem b re-oxidation rate (kobs) of reduced NcCYT (4 μM) mixed with NcLPMO9F (20 μM), stopped flow at 563 nm, 30 °C, 50 mM sodium citrate pH 5.0 (re-oxidation by oxygen alone 0.0007 s^−1) [11] of 67.2 s⁻¹.

B2: dehydrogenase domain of Neurospora crassa cellobiose dehydrogenase IIA (separate fragment) (domain or fragment)
chain: QTAPKTFTHPDTGIVFNTWSASDSQTKGGFTVGMALPSNALTTDATEFIGYLECSSAKNGANSGWCGVSLRGAMTNNLLITAWPSDGEVYTNLMFATGYAMPKNYAGDAKITQIASSVNATHFTLVFRCQNCLSWDQDGVTGGISTSNKGAQLGWVQAFPSPGNPTCPTQITLSQHDNGMGQWGAAFDSNIANPSYTAWAAKATKTVTGTCSGPVTTSIAATPVPTGVSFDYIVVGGGAGGIPVADKLSESGKSVLLIEKGFASTGEHGGTLKPEWLNNTSLTRFDVPGLCNQIWKDSDGIACSDTDQMAGCVLGGGTAINAGLWYKPYTKDWDYLFPSGWKGSDIAGATSRALSRIPGTTTPSQDGKRYLQQGFEVLANGLKASGWKEVDSLKDSEQKNRTFSHTSYMYINGERGGPLATYLVSAKKRSNFKLWLNTAVKRVIREGGHITGVEVEAFRNGGYSGIIPVTNTTGRVVLSAGTFGSAKILLRSGIGPKDQLEVVKASADGPTMVSNSSWIDLPVGHNLVDHTNTDTVIQHNNVTFYDFYKAWDNPNTTDMNLYLNGRSGIFAQAAPNIGPLFWEEITGADGIVRQLHWTARVEGSFETPDGYAMTMSQYLGRGATSRGRMTLSPTLNTVVSDLPYLKDPNDKAAVVQGIVNLQKALANVKGLTWAYPSANQTAADFVDKQPVTYQSRRSNHWMGTNKMGTDDGRSGGTAVVDTNTRVYGTDNLYVVDASIFPGVPTTNPTAYIVVAAEHAAAKILAQPANEAVPKWGWCGGPTYTGSQTCQAPYKCEKQNDWYWQCV
Molecule B2 has a re-oxidation rate of the FAD cofactor of NcDH (10 μM) in the presence of 50 μM NcLPMO9F, stopped flow at 450 nm (0.0444 s^–1 without LPMO): unchanged, no electron transfer [12] of 0.0442 s⁻¹.
